From article PMC10786891, “Massively parallel profiling of RNA-targeting CRISPR-Cas13d” come the findings set out here.

Changes are numbered by the printed parent chain. In names and notes the source's numbering stands.

Sequences and labels used below:
T1: EsCas13d, nuclease-dead (Eubacterium siraeum, UniProt B0MS50, R295A;H300A;R849A;H854A)
T1 sequence: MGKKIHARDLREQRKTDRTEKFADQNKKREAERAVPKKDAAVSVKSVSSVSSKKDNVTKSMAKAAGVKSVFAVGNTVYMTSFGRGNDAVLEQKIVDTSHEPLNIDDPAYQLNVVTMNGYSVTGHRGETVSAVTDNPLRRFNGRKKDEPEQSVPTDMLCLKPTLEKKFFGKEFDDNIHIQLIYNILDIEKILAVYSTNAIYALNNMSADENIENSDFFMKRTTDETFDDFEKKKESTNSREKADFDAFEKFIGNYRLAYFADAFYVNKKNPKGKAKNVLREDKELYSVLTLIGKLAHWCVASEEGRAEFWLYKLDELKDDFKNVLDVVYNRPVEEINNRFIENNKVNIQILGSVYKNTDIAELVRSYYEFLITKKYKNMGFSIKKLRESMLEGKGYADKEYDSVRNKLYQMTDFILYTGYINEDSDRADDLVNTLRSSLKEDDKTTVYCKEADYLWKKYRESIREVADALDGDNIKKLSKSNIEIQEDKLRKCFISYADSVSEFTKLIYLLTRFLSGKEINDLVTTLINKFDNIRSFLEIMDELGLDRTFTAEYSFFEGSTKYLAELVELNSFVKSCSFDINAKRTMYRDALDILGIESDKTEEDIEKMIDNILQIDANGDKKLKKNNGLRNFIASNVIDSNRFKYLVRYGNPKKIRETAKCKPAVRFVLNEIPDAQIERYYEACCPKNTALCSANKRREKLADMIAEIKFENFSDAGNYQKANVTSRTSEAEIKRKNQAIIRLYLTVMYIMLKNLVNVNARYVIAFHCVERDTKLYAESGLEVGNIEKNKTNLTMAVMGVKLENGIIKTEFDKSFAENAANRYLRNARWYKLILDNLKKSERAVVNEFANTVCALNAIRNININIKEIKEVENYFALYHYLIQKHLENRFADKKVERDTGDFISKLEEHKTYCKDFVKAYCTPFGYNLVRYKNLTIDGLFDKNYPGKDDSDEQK

B1: target 1 U10A,G13A (mixed)
RNA 1: CACCCGUGCAAAAAUGCAGGGGUCUAAAACUGAGCGGAUAACCUCUCUAUGG
RNA 2: GGGAAUGGAUCCACAUCUACGAAUUCGUACCAUAGAGAAGUAAUCCGCUCACCGAGAUCGGAAGAGCACACGU
B2: target 1 insU 3' of 22,insG 3' of 6 (mixed)
RNA 1: B1 RNA 1
RNA 2: GGGAAUGGAUCCACAUCUACGAAUUCGUACUCAUAGAGAGGUUAUCCGGCUCACCGAGAUCGGAAGAGCACACGU
B3: target 1 A9U,A16G (mixed)
RNA 1: B1 RNA 1
RNA 2: B1 RNA 2 with A36G, A39G, A42U, A43U
B4: target 1 C2G,U3G (mixed)
RNA 1: B1 RNA 1
RNA 2: B1 RNA 2 with A39G, A42U, U49G, C50G
B5: target 1 G13C,G15A (mixed)
RNA 1: B1 RNA 1
RNA 2: B1 RNA 2 with G37A, A39C, A42U
B6: target 1 insA 3' of 15,insU 3' of 5 (mixed)
RNA 1: B1 RNA 1
RNA 2: B2 RNA 2 with U31C, C32A, A33U, U34A, A35G, G36A, A37G, G38A, G49U
B7: target 1 U3A,C6A (mixed)
RNA 1: B1 RNA 1
RNA 2: B1 RNA 2 with A39G, A42U, C46A, U49A
B8: target 1 insU 3' of 18,insA 3' of 10 (mixed)
RNA 1: B1 RNA 1
RNA 2: B2 RNA 2 with U31C, C32A, A33U, U34A, A35U, U45A, C46U, G48C
B9: target 1 insA 3' of 22,insA 3' of 13 (mixed)
RNA 1: B1 RNA 1
RNA 2: B2 RNA 2 with U31A, G41A, U42G, A44U, U45A, C46U, G48C
B10: target 1 C7U,U8A (mixed)
RNA 1: B1 RNA 1
RNA 2: B1 RNA 2 with A39G, A42U, U44A, C45U
B11: target 1 G12U,A18C (mixed)
RNA 1: B1 RNA 1
RNA 2: B1 RNA 2 with A34C, A39G, G40U, A42U
B12: target 1 insC 3' of 18,insC 3' of 15 (mixed)
RNA 1: B1 RNA 1
RNA 2: GGGAAUGGAUCCACAUCUACGAAUUCGUACCAUACGAGCAGGUUAUCCGCUCACCGAGAUCGGAAGAGCACACGU
B13: target 1 insG 3' of 10,insA 3' of 10 (mixed)
RNA 1: B1 RNA 1
RNA 2: GGGAAUGGAUCCACAUCUACGAAUUCGUACCAUAGAGAGGUUGAAUCCGCUCACCGAGAUCGGAAGAGCACACGU
B14: target 1 C4U,C6U (mixed)
RNA 1: B1 RNA 1
RNA 2: B1 RNA 2 with A39G, A42U, C46U, C48U
B15: target 1 G5A,U8A (mixed)
RNA 1: B1 RNA 1
RNA 2: B1 RNA 2 with A39G, A42U, U44A, G47A
B16: target 1 insC 3' of 12,insG 3' of 9 (mixed)
RNA 1: B1 RNA 1
RNA 2: B13 RNA 2 with U41C, G43U, A45G
B17: target 1 insA 3' of 19,insG 3' of 3 (mixed)
RNA 1: B1 RNA 1
RNA 2: B2 RNA 2 with U31C, C32A, A33U, U34A, G49C, C50U, U51G
B18: target 1 insC 3' of 20,insU 3' of 7 (mixed)
RNA 1: B1 RNA 1
RNA 2: B2 RNA 2 with U31C, C32A, A33C, C47U, G48C
B19: target 1 insU 3' of 18,insU 3' of 18 (mixed)
RNA 1: B1 RNA 1
RNA 2: B12 RNA 2 with C35U, G36U, A37G, G38A, C39G
B20: target 1 insA 3' of 11,insU 3' of 2 (mixed)
RNA 1: B1 RNA 1
RNA 2: B13 RNA 2 with U42A, G43U, A45U, U46C, C48G, G49C, C50U, U51C, C52U
B21: target 1 G12C,C21U (mixed)
RNA 1: B1 RNA 1
RNA 2: B1 RNA 2 with C31U, A39G, G40C, A42U
B22: target 1 insU 3' of 5 (mixed)
RNA 1: B1 RNA 1
RNA 2: GGGAAUGGAUCCACAUCUACGAAUUCGUACCAUAGAGAGGUUAUCCGUCUCACCGAGAUCGGAAGAGCACACGU
B23: target 1 U3G,G15U (mixed)
RNA 1: B1 RNA 1
RNA 2: B1 RNA 2 with G37U, A39G, A42U, U49G
B24: target 1 insC 3' of 19,insA 3' of 3 (mixed)
RNA 1: B1 RNA 1
RNA 2: B2 RNA 2 with U31C, C32A, A33U, U34C, G49C, C50U, U51A
B25: target 1 insA 3' of 5,insG 3' of 2 (mixed)
RNA 1: B1 RNA 1
RNA 2: GGGAAUGGAUCCACAUCUACGAAUUCGUACCAUAGAGAGGUUAUCCGACUCGACCGAGAUCGGAAGAGCACACGU
B26: target 1 insA 3' of 21,insA 3' of 4 (mixed)
RNA 1: B1 RNA 1
RNA 2: B2 RNA 2 with U31C, C32A, G49C, C50A
B27: target 1 G12A,C21A (mixed)
RNA 1: B1 RNA 1
RNA 2: B1 RNA 2 with C31A, A39G, G40A, A42U
B28: target 1 insU 3' of 22,insC 3' of 20 (mixed)
RNA 1: B1 RNA 1
RNA 2: B12 RNA 2 with C31U, A32C, U33A, A34C, C35U, G36A, A37G, G38A, C39G
B29: target 1 insG 3' of 16,insC 3' of 16 (mixed)
RNA 1: B1 RNA 1
RNA 2: B12 RNA 2 with C35G, G36A, A37G, G38C, C39G
B30: target 1 G12C,G13C (mixed)
RNA 1: B1 RNA 1
RNA 2: B1 RNA 2 with A39C, G40C, A42U
B31: target 1 C4A,U11G (mixed)
RNA 1: B1 RNA 1
RNA 2: B1 RNA 2 with A39G, U41G, A42U, C48A
B32: target 1 insC 3' of 22,insA 3' of 10 (mixed)
RNA 1: B1 RNA 1
RNA 2: B2 RNA 2 with U31C, U45A, C46U, G48C

This data set deals with T1, EsCas13d, nuclease-dead. Description: crRNA (strand 1, pre-loaded); Mg2+; 40 mM Tris-HCl pH 7.5, 150 mM NaCl, 6 mM MgCl2, 1 mM DTT, 0.1% Tween-20, 0.2 mg/ml BSA; 25 C; 10 min per concentration, then washed. As to conditions: tags: His6-TwinStrep-SUMO cleaved; N-terminal SNAP kept (SNAP-Surface 488); label: 3' end held by stalled T7 RNA polymerase.
In general, Kd refers to the equilibrium constant for the complex coming apart. As for B1, the affinity, expressed as Kd, was 9.5 ± 1 nM. To B2 belongs 34 ± 7 nM; to B3, 67 ± 9 nM; to B4, 4.43 ± 0.34 nM. B5 came in with a Kd of 46 ± 9 nM. To B6 belongs 27.9 ± 2.9 nM; to B7, 5.02 ± 0.21 nM. To B8 belongs 41.2 ± 3.1 nM; to B9, 6 ± 0.4 nM. B10 registered a Kd of 12.9 ± 0.7 nM. Regarding B11, the Kd was found to be 40 ± 4 nM. To B12 belongs 56 ± 8 nM. To B13 belongs 10.7 ± 0.6 nM.

On to B14, for which binding was put at a Kd of 28 ± 8 nM. The figure for B15 is 45 ± 4 nM; for B16 it is 24 ± 1.2 nM; for B17 it is 13.2 ± 0.6 nM.

For B18, binding was characterised by a dissociation constant (Kd) of 13.2 ± 1 nM.

Molecule B19 yielded a Kd of 30.9 ± 2 nM. This Kd is about 2.3-fold higher than that of the molecule before. On to B20, for which the Kd is 22.2 ± 1.1 nM. The molecule B21 yielded a Kd of 6 ± 0.5 nM. The figure for B22 is 18.1 ± 2.5 nM. The figure for B23 is roughly 60 nM; for B24 it is 29.8 ± 2.1 nM. B25 registered a Kd of 8.3 ± 0.7 nM. Regarding B26, the affinity, expressed as Kd, was 10.2 ± 1.3 nM. As for B27, the Kd turned out to be 34.8 ± 2.2 nM.

In turn, B28 returned a Kd of 18.3 ± 1.4 nM.

In the case of B29, the Kd worked out at 31.5 ± 1.8 nM. The figure for B30 is 30 ± 6 nM; for B31 it is 8.4 ± 0.7 nM; for B32 it is 28.2 ± 3.4 nM.
